Each binder was assayed against T1, human prostate-specific membrane antigen (PSMA), on prostate cancer LNCaP and PC-3 cells (human, UniProt Q04609 1-750) (assay: flow cytometry on LNCaP cells).
T1 construct: also called glutamate carboxypeptidase II; GCPII
T1 sequence (Q04609 whole entry): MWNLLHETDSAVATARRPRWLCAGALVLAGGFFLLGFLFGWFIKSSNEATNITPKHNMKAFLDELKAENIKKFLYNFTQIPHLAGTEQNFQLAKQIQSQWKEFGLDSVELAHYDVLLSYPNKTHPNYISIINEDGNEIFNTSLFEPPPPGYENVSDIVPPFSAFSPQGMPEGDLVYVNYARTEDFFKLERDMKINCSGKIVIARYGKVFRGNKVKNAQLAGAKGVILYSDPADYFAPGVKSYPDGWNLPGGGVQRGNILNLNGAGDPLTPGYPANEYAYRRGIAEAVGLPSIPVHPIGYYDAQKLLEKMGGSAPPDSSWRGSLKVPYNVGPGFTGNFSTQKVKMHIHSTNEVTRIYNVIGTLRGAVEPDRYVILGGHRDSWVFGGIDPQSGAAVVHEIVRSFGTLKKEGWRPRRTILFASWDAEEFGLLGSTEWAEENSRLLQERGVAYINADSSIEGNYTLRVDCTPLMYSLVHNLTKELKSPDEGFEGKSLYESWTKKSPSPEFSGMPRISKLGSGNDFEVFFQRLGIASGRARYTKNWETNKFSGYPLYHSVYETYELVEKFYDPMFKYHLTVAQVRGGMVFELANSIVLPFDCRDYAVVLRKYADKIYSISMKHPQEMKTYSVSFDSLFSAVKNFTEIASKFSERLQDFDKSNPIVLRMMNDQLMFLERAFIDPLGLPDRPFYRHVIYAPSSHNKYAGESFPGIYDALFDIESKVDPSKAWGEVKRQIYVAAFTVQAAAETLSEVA

Row | Binder | binding result
1 | Antibody No. 12 (antibody, V domains shown, Mouse hybridoma monoclonal IgG from ascites; also called PSMA-McAb clone 12) VH: VQLQESGPGLVKPSQSLSLTCTVTGYSITSDYAWNWIRQFPGNKLEWMGYISYSGSTSYNPSLKSRISITRDTSKNQFFLHLNSVTTEDTATYYCARQTYYYGSSPFTYWGQGTTVTVSS VL: DIVMTQTPSSLTVTAGEKVTMRCKSSQSLLNSGNQKSYLTWYQQKPGQPPKLLIYWASTRESGVPDRFTGSGSGTDFTLTISSVQAEDLAVYYCQNDYSYPLTFGAGTKLELK | binds
2 | Antibody No. 18 (antibody, V domains shown, Mouse hybridoma monoclonal IgG from ascites; also called PSMA-McAb clone 18) VH: VQLEESGDDLVKPGASVKLSCKASGHTFTSYWINWIKQRPGQGLEWIGRIAPGSGSTYYNEMFKGKATLTVDTSSSTAYIQLSSLSSEDSAVYFCARNLKYGNYGFAYWGQGTTVTVSS VL: DIVMTQTPSSLTVTAGEKVTMSCKSSQSLLNSGNQKNYLTWYQQKPGQPPKLLIYWASTRESGVPDRFTGSGSGTDFTLTISSVQAEDLAVYYCQNDYSYPLTFGAGTKLEIK | binds
3 | Antibody No. 14 (antibody, V domains shown, Mouse hybridoma monoclonal IgG from ascites; also called PSMA-McAb clone 14) VH: VQLQESGPGLVQPSQSLSITCTVSGFSLTSYGVHWVRQSPGKGLEWLGVIWRGGSTDYNAAFMSRLSITKDNSKSQVFFKMNSLQADDTAIYYCAKKKYGNYGAMDYWGQGTTVTVSS VL: DIVMTQSPKFLLVSAGDRVTITCKASQSVSNDVAWYQQKPGQSPKLLIYYASNRYTGVPDRFTGSGYGTDFTFTISTVQAEDLAVYFCQQDYSSPYTFGGGTKLELK | binds

— patent US20240002530A1 (LXZ SERVICES, published 2024)
